The stoichiometry N is a count of units in the complex or per binding partner.

The target in assay [1] is AbMtlD H434C_Y469C double-cysteine variant (Acinetobacter baumannii).
Assay [2] concerns the target AbMtlD Y427C_A466C double-cysteine variant (Acinetobacter baumannii).
In assay [3] the target is Acinetobacter baumannii bifunctional mannitol-1-phosphate dehydrogenase/phosphatase (AbMtlD), wild type (Acinetobacter baumannii). As to the kind of experiment: SEC-MALS. A general note: Size exclusion chromatography separates by hydrodynamic size, large species first.

Substance “AbMtlD H434C_Y469C double-cysteine variant (from UniProt A0ABX6CFK3 1-715) (enzyme)” came in with an F6P reduction activity, kcat/Km for F6P (wild type: 2.388) in assay [1] of 149000 M⁻¹ s⁻¹.
Consider “AbMtlD Y427C_A466C double-cysteine variant (from UniProt A0ABX6CFK3 1-715) (enzyme)”, for which the F6P reduction activity, kcat/Km for F6P (wild type: 2.388) in assay [2] amounted to 139000 M⁻¹ s⁻¹.
“Acinetobacter baumannii bifunctional mannitol-1-phosphate dehydrogenase/phosphatase (AbMtlD), wild type (from UniProt A0ABX6CFK3 1-715) (enzyme)” showed a stoichiometry N in assay [3] of 2.

The values are drawn from article PMC9168451.
